In patent US20230287362A1 (REGENTS OF THE UNIVERSITY OF COLORADO A BODY CORPORATE, published 2023):
Ends that are not written are not given here.

Legend:
[1] = molecular target: T1, E. cloacae Cap2 E1 domain, residues 363-600, C548A (Enterobacter cloacae UCI 50, UniProt P0DX82 363-600); test: X-ray crystallography of a fusion construct, 2.11 A
T1 construct: also called Cap2 E1 (of Cap2 E1-CD-NTase: AMP, PDB 7TSQ)

[2] = molecular target: T2, E. cloacae Cap2 E1 domain, residues 374-600, C548A (Enterobacter cloacae UCI 50, UniProt P0DX82 374-600); test: X-ray crystallography of a fusion construct, 1.77 A
T2 construct: also called Cap2 E1 (of Cp2 E1-CD-NTase Apo, PDB 7TSX)

[3] = molecular target: T3, E. cloacae Cap2 C109A/C548A (catalytically dead) (Enterobacter cloacae UCI 50, UniProt P0DX82 1-600); test: co-purified stoichiometric complex, cryo-EM
T3 construct: also called C.D. Cap2; Cap2(C548A/C109A)

B1: E. cloacae CD-NTase C terminus, residues 370-381 (peptide)
peptide: KPAEPQKTGRFA
modifications: also: C terminus conjugated to AMP in ATP-bound structure, unmodified in apo structure
B1: binds [1]; binds [2].

B2: E. cloacae CD-NTase with an N-terminal His6-tag (enzyme)
chain: MELQPQFNEFLANIRPTDTQKEDWKSGARTLRERLKNFEPLKEIVVSTFLQGSIRRSTAIRPLGDKRPDVDIVVVTNLDHTRMSPTDAMDLFIPFLEKYYPGKWETQGRSFGITLSYVELDLVITAIPESGAEKSHLEQLYKSESVLTVNSLEEQTDWRLNKSWTPNTGWLSESNSAQVEDAPASEWKAHPLVLPDREKNEWGRTHPLAQIRWTAEKNRLCNGHYINLVRAVKWWRQQNSEDLPKYPKGYPLEHLIGNALDNGTTSMAQGLVQLMDTFLSRWAAIYNQKSKPWLSDHGVAEHDVMARLTAEDFCSFYEGIASAAEIARNALASEEPQESAQLWRQLFGSKFPLPGPQGGDRNGGFTTPSKPAEPQKTGRFA
modifications: C terminus conjugated to AMP in the cryo-EM structure
notes: also called His6-CD-NTase; ec cdnD02; not shown: N-terminal His6-TEV cleavage site tag of vector 2-BT
B2: binds [3].
